Source: PMC11473482, “Highly efficient synthesis of the chiral ACE inhibitor intermediate (R)-2-hydroxy-4-phenylbutyrate ethyl ester via engineered bi-enzyme coupled systems” (Bioresources and Bioprocessing, 2024)

What was measured:
[1] = tested on: T1, GDH-L-CpCR; experiment: NADPH depletion at […] nm; assay type: biochemical; conditions: 100 mM phosphate pH 7.0, NADPH co-substrate, fused GDH; substrate of Km not given, OPBE by the assay
T1 construct: fusion: GDH N-terminal, (GGGGS)2 linker, CpCR C-terminal; pETDuet-1, E. coli BL21(DE3); with Glucose 1-dehydrogenase

[2] = tested on: T2, CpCR-L-GDH; experiment: NADPH depletion at […] nm; assay type: biochemical; conditions: 100 mM phosphate pH 7.0, NADPH co-substrate, fused GDH; substrate of Km not given, OPBE by the assay
T2 construct: fusion: CpCR N-terminal, (GGGGS)2 linker, GDH C-terminal; about 69 kDa; pETDuet-1, E. coli BL21(DE3); with Glucose 1-dehydrogenase

[3] = substrate: CCOC(=O)C(=O)CCc1ccccc1; experiment: purified protein; assay type: biochemical, Lodderomyces parapsilosis; conditions: 100 mM phosphate pH 7.0, NADPH co-substrate, enzyme from pETDuet-1 strain, substrate of Km not given, OPBE by the assay

Row | Molecule | Km [1] [mM] | Km [2] [mM] | Km [3] [mM] | kcat [3] [s⁻¹] | kcat/Km [3] [M⁻¹ s⁻¹]
1 | CCOC(=O)C(=O)CCc1ccccc1 [OPBE] | 16.5 | 18.9 | – | – | –
2 | CpCR (Lodderomyces parapsilosis) (protein, full-length ORF, 368 residues, about 41 kDa; His-tagged, expressed from pETDuet-1 in E. coli BL21(DE3), Ni-NTA purified) MTKAVPDKFQGFAVSDPKNWNRPKLASYERKQINPHDVVLKNEVCGLCYSDIHTLSAGWQPLQRDNLVVGHEIIGEVIAVGDEVTEFKVGDRVGIGAASSSCRSCQRCDSDNEQYCKQGAATYNSKDVRSNNYVTQGGYSSHSIADEKFVFAIPEDLPSSYGAPLMCAGITVFSPLIRNLGLDARGKNVGIIGIGGLGHLALQFANAMGANVTAFSRSSSKKEQAMKLGAHDFVATGEDKTWYKNYDDHFDFILNCASGIDGLNLSEYLSTLKVDKKFVSVGLPPSEDKFEVSPFTFLQQGASFGSSLLGSKTEVKEMLNLAAKHNVRPMIEEVPISEENCAKALDRCHAGDVRYRFVFTDFDKAFKA | – | – | 19.32 | 1.77 | 91
